Data on five substances can be found in PMC3988464.

Read-outs that look alike come from different tables or passages of the source.

Assay [1] addresses CXCR2 (Homo sapiens) (UniProt P25025). Conditions: cited from earlier work.
Assay [2] concerns the target CXCL8 (Homo sapiens) (UniProt P10145). The note with it: cited from earlier work.
Assay [3] concerns the target Wild type CXCL8 (human). The assay can be described thus: SPR.
For assay [4], the target named is Wild type CXCL8 (human). The assay can be described thus: SPR. The source holds these as a separate data set. Background: In SPR one partner is held on a chip, and binding of the other changes the refractive index at the surface.
The target in assay [5] is Wild type CXCL8 (human).
Assay [6] concerns the target Isolated Link module of human TSG-6 (Link_TSG6) (human) (UniProt P98066). In words: SPR.
Assay [7] shares this target. The assay can be described thus: SPR. This is another data set of the same source.

Sequence of Isolated Link module of human TSG-6 (Link_TSG6) (human) (P98066 36-129): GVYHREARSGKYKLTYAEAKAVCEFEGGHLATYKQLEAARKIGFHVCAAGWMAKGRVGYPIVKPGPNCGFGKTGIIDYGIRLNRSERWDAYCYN
Sequence of Full-length, wild type recombinant human TSG-6 (P98066 18-277): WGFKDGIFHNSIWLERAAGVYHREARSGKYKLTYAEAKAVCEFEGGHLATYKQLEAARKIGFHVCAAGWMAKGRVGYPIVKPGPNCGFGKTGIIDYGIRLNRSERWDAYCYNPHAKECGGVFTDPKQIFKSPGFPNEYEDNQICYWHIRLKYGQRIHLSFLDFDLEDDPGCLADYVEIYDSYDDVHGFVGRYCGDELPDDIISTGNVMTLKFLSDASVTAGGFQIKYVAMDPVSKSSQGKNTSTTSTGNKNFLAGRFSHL
Sequence of CXCR2 (Homo sapiens) (P25025 whole entry): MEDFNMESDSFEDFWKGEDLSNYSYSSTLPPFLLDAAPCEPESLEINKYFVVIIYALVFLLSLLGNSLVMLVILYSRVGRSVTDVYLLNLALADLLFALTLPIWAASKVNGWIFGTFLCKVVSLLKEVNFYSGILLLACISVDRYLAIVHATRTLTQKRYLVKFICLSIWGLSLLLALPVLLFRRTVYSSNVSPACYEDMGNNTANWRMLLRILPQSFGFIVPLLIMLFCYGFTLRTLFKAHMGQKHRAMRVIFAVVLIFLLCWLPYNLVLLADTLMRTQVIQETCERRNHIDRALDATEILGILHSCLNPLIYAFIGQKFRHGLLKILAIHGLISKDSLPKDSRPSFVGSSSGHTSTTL
Sequence of Isolated Link module of human TSG-6 (Link_TSG6) (P98066 36-129): as the sequence (P98066 36-129) above
Sequence of CXCL8 (Homo sapiens) (P10145 28-99): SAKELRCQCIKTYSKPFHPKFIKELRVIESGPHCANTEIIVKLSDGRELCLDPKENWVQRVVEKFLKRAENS
Sequence of CXCL8 (P10145 28-99): as above
Sequence of Evasin-3 (P0C8E8 21-86): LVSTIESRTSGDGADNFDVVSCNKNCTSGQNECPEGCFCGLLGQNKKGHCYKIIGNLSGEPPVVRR

For the substance CXCL8 (from UniProt P10145), the Kd in assay [1] was 1 nM.
For Evasin-3 (from UniProt P0C8E8), the Kd in assay [2] was 1 nM.
With “Full-length, wild type recombinant human TSG-6 (from UniProt P98066 18-277) (natural protein)”, the values for the Kd in assay [3] and in assay [4] were 20 nM and 74 nM, respectively.
For “Isolated Link module of human TSG-6 (Link_TSG6) (from UniProt P98066 36-129) (domain or fragment)”, the inhibition of CXCL8-induced neutrophil trans-migration (Transwell) in assay [5] amounted to 10 nM.
Regarding Wild type CXCL8 (ligand), in assay [6], the Kd came out at 21 nM and the koff came to 0.0011 s⁻¹. In assay [7], the Kd worked out at 6 nM and the koff worked out at 0.00032 s⁻¹.

As a reminder, the Kd is the constant that tells how readily two partners part at equilibrium. Broadly, the koff is the rate constant with which the complex falls apart. Read a low koff as a long-lived complex.
